Experimental data published in the supplement of paper PMC11780869.

Tested on: Bacillus subtilis
Assay: cleaved RNA product abundance (RNA/gDNA barcode ratio) relative to median wild-type variant (ratio to wild type); higher = more accumulation of the downstream cleavage product
Experimental: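 MPRA in B. subtilis. Mutagenized RNase Y cleavage-site regions (9% mutation rate) were inserted into a barcoded reporter mRNA (truncated aprE or tetM). Cells were grown in LB at 37°C to OD600 0.3. The cleaved RNA isoform was gel-purified and its barcodes counted; the RNA:gDNA barcode ratio was normalised to the median wild-type variant, and the median over barcodes is reported per variant. The printed sequence is the variable window only; the reporter flanks are not printed.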

[1] = experiment (reporter, strain, medium): exp 4a: truncated aprE reporter, strain BJT201 with 2% xylose (RNase J1 expressed), cleavage site: cggR-gapA (positions -7 to +36 mutated)
[2] = experiment (reporter, strain, medium): exp 8a: truncated aprE reporter, strain BJT201 with 2% xylose (RNase J1 expressed), cleavage site: glnRA (positions -5 to +31 mutated)
[3] = experiment (reporter, strain, medium): exp 2b: truncated aprE reporter, strain BJT200, cleavage site: cggR-gapA (positions -7 to +36 mutated)
[4] = experiment (reporter, strain, medium): exp 6: tetM reporter, strain 168, cleavage site: cggR-gapA (positions -7 to +36 mutated)

Row | Sequence | cleaved RNA product abundance [1] | cleaved RNA product abundance [2] | cleaved RNA product abundance [3] | other results
1 | ACAGACGAAGGAGCCGCAAAGAAGTTATTAAGGGATGAAGCATCCCTCAATATAAATATCTCTCACTTATTTAAA | 0.748 | – | – | –
2 | ACAGACGAAGGAGCCGCAAAGAAGTTATTAAAGGATGAATAATCTCTCAATATAAATATCTCTCACTTATTTAAA | 0.149 | – | – | –
3 | ACAGACGAAGGAGCCGCAAAGAAGTTATTAAGGGATTAATAATCCCGCAATATAAATATCTCTCACTTATTTAAA | 0.225 | – | – | –
4 | CGACATGTCCCGCTTCTTTCATTAATCCGTTAGCAACTGTTTTGCTACATACATTTACCTTTTAAGAGGAGGAAT | – | 0.368 | – | –
5 | CGACATGTCCCGCTTCTTTCATTAATCCCTTAGCAACTGTTTTGCTATATACATATACCTTTTAAGAGGAGGAAT | – | 0.267 | – | –
6 | ACAGACGAAGGAGCCGCAAAGAAGTTATTAAGGGATGAATAACCACTCAATATAAATATCTCTCACTTATTTAAA | 0.17 | – | 0.0866 | –
7 | CGACATGTCCCGCTTCTTTCATTAATCCGGTAGCAACTGTTTTGCTATATACATTTACCTTTTAAGAGGAGGAAT | – | 0.945 | – | –
8 | CGACATGTCCCGCTTCTTTCATTAATCCGTTTGCAACTGTTTTTCTATATACATTTACCTTTTAAGAGGAGGAAT | – | 0.768 | – | –
9 | ACAGACGAAGGAGCCGCAAAGAAATTATTAAGAGATGAATTATCCCTCAATATAAATATCTCTCACTTATTTAAA | 0.121 | – | – | –
10 | ACAGACGAAGGAGCCGCAAAGAAGTTATCAAGGTATGAATAATCCCTCAATATAAATATCTCTCACTTATTTAAA | 0.169 | – | – | –
11 | CGACATGTCCCGCTTCTTTCATTAATCCGTTAGCAACTATTTTGCTATATACACTTACCTTTTAAGAGGAGGAAT | – | 1.29 | – | –
12 | ACAGACGAAGGAGCCGCAAAGAAGTTATTAAGGGATAAATAATCCCTCGATATAAATATCTCTCACTTATTTAAA | 0.433 | – | – | –
13 | ACAGACGAAGGAGCCGCAAAGAAGTTTTTAAGGGTTGAATAATCCCTCAATATAAATATCTCTCACTTATTTAAA | 0.271 | – | 0.166 | –
14 | ACAGACGAAGGAGCCGCAAAGAAGTTATTATGGGATGAATAATCCGTCAATATAAATATCTCTCACTTATTTAAA | 0.279 | – | – | –
15 | CGACATGTCCCGCTTCTTTCATTAATCCGTTAGCAACTGTTTTGCTATATACCTTCACCTTTTAAGAGGAGGAAT | – | 0.276 | – | –
16 | CGACATGTCCCGCTTCTTTCATTAATCCGTTAGCAACTATTTTGCTATAAACATTTACCTTTTAAGAGGAGGAAT | – | 1 | – | –
17 | ACAGACGAAGGAGCCGCAAAGAAGTTATTAAGGGATGAATAAACCCTTAATATAAATATCTCTCACTTATTTAAA | 0.507 | – | – | –
18 | ACAGACGAAGGAGCCGCTAAGAAGTTGTTAAGGGATGAATAATCCCTCAATATAAATATCTCTCACTTATTTAAA | 0.503 | – | – | –
19 | ACAGACGAAGGAGCCGCACAGAAGTTATTAAGGGAAGAATAATCCCTCAATATAAATATCTCTCACTTATTTAAA | 0.573 | – | 0.452 | –

Row | Sequence | cleaved RNA product abundance [1] | cleaved RNA product abundance [2] | cleaved RNA product abundance [3] | other results
20 | ACAGACGAAGGAGCCGCAAAGAAGTTATTAAAGGAAGAATAATCCCTCAATATAAATATCTCTCACTTATTTAAA | 0.112 | – | 0.0711 | –
21 | ACAGACGAAGGAGCCGCAAAGAAGTTATTAAGGGATGATTAATCCCTCAATTTAAATATCTCTCACTTATTTAAA | 0.0965 | – | – | –
22 | ACAGACGAAGGAGCCGCAAAGAAGTTATTAAGGAATGAATAATCCCCCAATATAAATATCTCTCACTTATTTAAA | 0.115 | – | 0.122 | –
23 | ACAGACGAAGGAGCCGCAAAGAAGTTATTAAGGTATGAATAATCCCTCAATATTAATATCTCTCACTTATTTAAA | 0.0645 | – | – | –
24 | CGACATGTCCCGCTTCTTTCATTACTCCGTTAGCAACTGTTTTACTATATACATTTACCTTTTAAGAGGAGGAAT | – | 0.792 | – | –
25 | ACAGACGAAGGAGCCGCAAAGAAGTTAGTAAGGGAGGAATAATCCCTCAATATAAATATCTCTCACTTATTTAAA | 0.199 | – | 0.123 | –
26 | ACAGACGAAGGAGCCGCAAAGGAGTTATTAAGAGATGAATAATCCCTCAATATAAATATCTCTCACTTATTTAAA | 0.199 | – | – | –
27 | ACAGACGAAGGAGCCGCAGAGAAGTTATTAAGGGCTGAATAATCCCTCAATATAAATATCTCTCACTTATTTAAA | 0.694 | – | – | –
28 | ACAGACGAAGGAGCCGCAAAAAAGTTATTAAGGGATGAATAATCACTCAATATAAATATCTCTCACTTATTTAAA | 0.12 | – | 0.108 | –
29 | ACAGACGAAGGAGCCGCAAAGAAGTTATTAAGGGATGAATAATCCCTCAACATAAAAATCTCTCACTTATTTAAA | 0.234 | – | 0.242 | –
30 | ACAGACGAAGGAGCCGCAAAGAAGTTATTAAGGGATGAATAATCCCACTATATAAATATCTCTCACTTATTTAAA | 0.282 | – | – | –
31 | CGACATGTCCCGCTTCTTTCATTAATCCGTTAGCAACTGTTTTGCTATATACACTTATCTTTTAAGAGGAGGAAT | – | 0.672 | – | –
32 | CGACATGTCCCGCTTCTTTCATTAATCCGTTAGCAACTGTTTTCCTATATACGTTTACCTTTTAAGAGGAGGAAT | – | 0.26 | – | –
33 | ACAGACGAAGGAGCCGCAAAGAAGTTATTAAGGGATAAATAATCCCTCAATATAAATTTCTCTCACTTATTTAAA | 0.368 | – | – | –
34 | ACAGACGAAGGAGCCGCAAAGAACTTATTAAGGGATGAATAAACCCTCAATATAAATATCTCTCACTTATTTAAA | 0.265 | – | 0.224 | –
35 | ACAGACGAAGGAGCCGCAAAGAAGTTATTAAAGGATGACTAATCCCTCAATATAAATATCTCTCACTTATTTAAA | 0.133 | – | 0.0975 | –
36 | ACAGACGAAGGAGCCGCAATGAAGTTATTAAAGGATGAATAATCCCTCAATATAAATATCTCTCACTTATTTAAA | 0.181 | – | 0.181 | –
37 | ACAGACGAAGGAGCCGCAAAGAAGTTATTAAGGGATTAATAATCCCTAAATATAAATATCTCTCACTTATTTAAA | 0.745 | – | 0.535 | –
38 | CGACATGTCCCGCTTCTTTCATTACTCCCTTAGCAACTGTTTTGCTATATACATTTACCTTTTAAGAGGAGGAAT | – | 0.223 | – | –

Row | Sequence | cleaved RNA product abundance [1] | cleaved RNA product abundance [2] | cleaved RNA product abundance [3] | other results
39 | CGACATGTCCCGCTTCTTTCATTAATCCATTAGCAACTGTTTTGCTATATACATCTACCTTTTAAGAGGAGGAAT | – | 0.942 | – | –
40 | ACAGACGAAGGAGCCGCAAAGAAGTTCTTAAGGGATGAATAATCCATCAATATAAATATCTCTCACTTATTTAAA | 0.199 | – | – | –
41 | ACAGACGAAGGAGCCGCAAAGAATTTATTAAGGGATGTATAATCCCTCAATATAAATATCTCTCACTTATTTAAA | 0.683 | – | – | –
42 | CGACATGTCCCGCTTCTTTCATTAATCAGTTAGCAACTGTTTTGCTATATACATTTATCTTTTAAGAGGAGGAAT | – | 0.854 | – | –
43 | ACAGACGAAGGAGCCGCAAAGAAGTTATTAAGGGATGAATGATCCTTCAATATAAATATCTCTCACTTATTTAAA | 0.258 | – | – | –
44 | ACAGACGAAGGAGCCGCAAAGAAGTTATTAAGGGATGCATAATACCTCAATATAAATATCTCTCACTTATTTAAA | 0.141 | – | 0.129 | –
45 | ACAGACGAAGGAGCCGCAAAGAAGTTATTAAGGGATCAATAATCTATCAATATAAATATCTCTCACTTATTTAAA | 0.209 | – | – | –
46 | CGACATGTCCCGCTTCTTTCATTAATCCGTTAGCAACTGTTTTGCTATATTAATTTACCTTTTAAGAGGAGGAAT | – | 0.236 | – | –
47 | ACAGACGAAGGAGCCGCAAAGAAGTTATTAAGGGAAGAATAATCACTCAATATAAATATCTCTCACTTATTTAAA | 0.104 | – | 0.109 | –
48 | ACAGACGAAGGAGCCGCAAAGAAGTTATTAAGGGATGAATAATTACTCAATATAAATATCTCTCACTTATTTAAA | 0.137 | – | 0.0971 | cleaved RNA product abundance [4]: 0.11
49 | ACAGACGAAGGAGCCGCAAAGAAGCTATTAAGGAATGAATAATCCCTCAATATAAATATCTCTCACTTATTTAAA | 0.101 | – | 0.108 | –
50 | CGACATGTCCCGCTTCTTTCATTACTCCGTTAGCAGCTGTTTTGCTATATACATTTACCTTTTAAGAGGAGGAAT | – | 0.827 | – | –
51 | ACAGACGAAGGAGCCGCAAAGAAGTTATAAAGGGATGAATAATCCCACAATATAAATATCTCTCACTTATTTAAA | 0.183 | – | 0.175 | –
52 | CGACATGTCCCGCTTCTTTCATTAATCCGTTAACAACTGTTTTGTTATATACATTTACCTTTTAAGAGGAGGAAT | – | 0.271 | – | –
53 | ACAGACGAAGGAGCCGCAAAGAAGTTATTAAGGGATGATTAATCCCTAAATATAAATATCTCTCACTTATTTAAA | 0.599 | – | – | –
54 | CGACATGTCCCGCTTCTTTCATTAATCCGATAGCAACTTTTTTGCTATATACATTTACCTTTTAAGAGGAGGAAT | – | 1.24 | – | –
55 | CGACATGTCCCGCTTCTTTCATTATTCCGTTAGGAACTGTTTTGCTATATACATTTACCTTTTAAGAGGAGGAAT | – | 0.44 | – | –
56 | ACAGACGAAGGAGCCGCAAAGAAGTTATTAAGGGATGAATAATCCCTCTATATAAATATCTCTCACTTATTTAAA | 0.489 | – | 0.42 | cleaved RNA product abundance [4]: 0.642
57 | ACAGACGAAGGAGCCGCAAAGAAGTTATTAAGGCATGAATAATCCCTCAATATAAATATCTCTCACTTATTTAAA | 0.125 | – | 0.0901 | cleaved RNA product abundance [4]: 0.124
